Source: paper PMC5080380, “Mechanical Strength and Inhibition of the Staphylococcus aureus Collagen-Binding Protein Cna” (mBio, 2016)

Columns and labels:
[1] = target: type II collagen purified from bovine nasal septum (bovine) (UniProt P02459); assay: single-cell force spectroscopy (AFM); a single living Cna^(+) S. aureus Phillips bacterium on a colloidal probe cantilever against a Cn substrate (NHS chemistry); PBS, 20°C; contact time 100 ms, 250 pN, 1,000 nm s^-1; Cna^(−) cells as control
[2] = target: type II collagen purified from bovine nasal septum (bovine) (UniProt P02459); assay: single-molecule force spectroscopy (AFM); Cn tips (NHS chemistry) on living Cna^(+) S. aureus Phillips bacteria trapped in porous membranes; PBS, 20°C; contact time 100 ms, 250 pN, 1,000 nm s^-1; Cna^(−) cells and 9G7 MAb (10 µg/ml) as controls
[3] = target: T1, type II collagen purified from bovine nasal septum (bovine, UniProt P02459 182-1241); assay: single-molecule force spectroscopy (AFM); recombinant CNA fragment on the tip at low density by a PEG-benzaldehyde linker, Cn on the substrate by NHS chemistry; PBS, 20°C; contact time 250 ms, maximum applied force 250 pN, approach and retraction speeds 1,000 nm s^-1 (retraction speed varied for the loading-rate plot and koff); 8 tips and substrates; conditions: both partners purified
T1 construct: Collagen type II, bovine, purified from nasal septum; collagen alpha-1(II) chain; Attached to gold-coated tips or substrates by NHS/EDC chemistry, or coated on microtiter wells; also called Cn; type II Cn; source: purified from bovine nasal septum (as described by Strawich and Nimni)

[4] = target: T1, type II collagen purified from bovine …; assay: single-molecule force spectroscopy (AFM); inverse configuration: Cn on the tip and CNA_(31–344) on the substrate, both by NHS chemistry; PBS, 20°C; contact time 250 ms, 250 pN, 1,000 nm s^-1 (retraction speed varied for koff); 6 tips and substrates; conditions: both partners purified

Chain of full-length collagen-binding protein Cna expressed on living Staphylococcus aureus strain Phillips cells (natural protein) (Q53654 30-1183): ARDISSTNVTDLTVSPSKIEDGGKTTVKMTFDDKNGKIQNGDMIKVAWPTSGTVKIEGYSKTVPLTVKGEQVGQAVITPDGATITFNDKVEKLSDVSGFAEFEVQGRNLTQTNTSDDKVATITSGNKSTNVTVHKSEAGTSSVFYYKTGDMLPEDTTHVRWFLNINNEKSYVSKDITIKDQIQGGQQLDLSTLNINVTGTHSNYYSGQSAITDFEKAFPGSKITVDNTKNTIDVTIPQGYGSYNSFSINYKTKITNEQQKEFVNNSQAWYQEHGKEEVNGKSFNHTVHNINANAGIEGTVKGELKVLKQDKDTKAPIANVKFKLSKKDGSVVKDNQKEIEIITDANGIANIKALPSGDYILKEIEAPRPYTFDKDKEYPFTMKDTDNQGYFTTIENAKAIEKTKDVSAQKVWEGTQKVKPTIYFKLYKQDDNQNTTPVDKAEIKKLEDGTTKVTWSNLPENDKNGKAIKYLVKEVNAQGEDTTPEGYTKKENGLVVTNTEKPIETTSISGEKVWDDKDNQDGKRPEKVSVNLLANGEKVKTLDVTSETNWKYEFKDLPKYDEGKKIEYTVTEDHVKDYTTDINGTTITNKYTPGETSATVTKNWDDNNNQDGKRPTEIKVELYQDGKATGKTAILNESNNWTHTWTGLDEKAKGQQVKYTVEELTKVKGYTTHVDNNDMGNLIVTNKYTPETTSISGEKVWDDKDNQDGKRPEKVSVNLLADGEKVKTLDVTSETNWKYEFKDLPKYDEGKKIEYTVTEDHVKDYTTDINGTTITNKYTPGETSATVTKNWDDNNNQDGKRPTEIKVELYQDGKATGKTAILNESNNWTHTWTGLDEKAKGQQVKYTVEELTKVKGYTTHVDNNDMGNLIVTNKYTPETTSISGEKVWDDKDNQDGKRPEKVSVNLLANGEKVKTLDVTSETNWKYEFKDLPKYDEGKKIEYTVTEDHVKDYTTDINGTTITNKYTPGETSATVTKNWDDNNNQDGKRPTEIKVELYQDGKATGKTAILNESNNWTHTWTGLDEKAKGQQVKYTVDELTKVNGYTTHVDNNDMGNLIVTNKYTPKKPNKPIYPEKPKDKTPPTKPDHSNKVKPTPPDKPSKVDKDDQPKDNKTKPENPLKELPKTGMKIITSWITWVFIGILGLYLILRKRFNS
Chain of type II collagen purified from bovine nasal septum (bovine) (P02459 182-1241): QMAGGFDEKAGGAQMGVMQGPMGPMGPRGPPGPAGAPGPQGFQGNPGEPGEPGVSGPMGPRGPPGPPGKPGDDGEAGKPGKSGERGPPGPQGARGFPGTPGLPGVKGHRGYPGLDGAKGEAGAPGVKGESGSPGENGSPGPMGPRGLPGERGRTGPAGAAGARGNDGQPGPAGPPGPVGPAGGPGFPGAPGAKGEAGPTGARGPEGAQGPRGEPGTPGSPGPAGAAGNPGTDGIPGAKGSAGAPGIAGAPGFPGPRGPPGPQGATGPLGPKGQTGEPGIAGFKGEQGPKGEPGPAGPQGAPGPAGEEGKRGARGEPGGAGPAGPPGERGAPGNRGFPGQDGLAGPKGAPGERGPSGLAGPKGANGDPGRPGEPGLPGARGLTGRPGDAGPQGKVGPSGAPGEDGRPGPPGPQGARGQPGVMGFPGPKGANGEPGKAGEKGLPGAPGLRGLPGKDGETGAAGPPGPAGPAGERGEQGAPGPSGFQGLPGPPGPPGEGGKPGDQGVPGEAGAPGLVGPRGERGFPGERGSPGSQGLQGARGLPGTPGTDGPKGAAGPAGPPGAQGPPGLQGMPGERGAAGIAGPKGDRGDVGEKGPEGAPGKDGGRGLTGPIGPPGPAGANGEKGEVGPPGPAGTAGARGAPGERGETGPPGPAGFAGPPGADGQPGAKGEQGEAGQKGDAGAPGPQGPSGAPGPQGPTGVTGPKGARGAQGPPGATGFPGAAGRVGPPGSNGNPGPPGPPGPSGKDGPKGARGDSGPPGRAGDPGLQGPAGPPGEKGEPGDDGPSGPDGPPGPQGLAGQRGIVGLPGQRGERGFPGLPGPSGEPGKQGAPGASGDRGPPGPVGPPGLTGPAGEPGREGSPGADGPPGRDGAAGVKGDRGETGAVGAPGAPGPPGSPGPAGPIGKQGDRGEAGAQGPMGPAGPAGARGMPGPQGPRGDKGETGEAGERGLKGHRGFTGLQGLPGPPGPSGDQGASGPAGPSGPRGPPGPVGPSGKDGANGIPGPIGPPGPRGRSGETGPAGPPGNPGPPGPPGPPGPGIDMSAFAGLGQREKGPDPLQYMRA
T1 sequence (P02459 182-1241): as above

Molecule | adhesion force (single cell) [1] | fraction of force curves with adhesion force peaks [1] | strong adhesion force (single cell), cell no. 1 [1] | strong adhesion force (single cell), cell no. 2 [1] | strong adhesion force (single cell), cell no. 3 [1] | strong adhesion force (single cell), cell no. 4 [1] | strong adhesion force (single cell), cell no. 5 [1] | strong adhesion force (single cell), cell no. 6 [1] | strong adhesion forces (single cell) [1] | weak adhesion forces (single cell) [1] | strong adhesion forces (single molecule) [2] | weak adhesion forces (single molecule) [2] | koff [3] | koff [4]
full-length collagen-binding protein Cna expressed on living Staphylococcus aureus strain Phillips cells (natural protein) | 100 to 5000 pN | 54 to 89% | 2120 pN | 3380 pN | 2500 pN | 3250 pN | 1890 pN | 3620 pN | 3160 pN | 670 pN | 1170 pN | 239 pN |  | 
recombinant CNA_(31–344), N1N2 subdomains of the A region of the Staphylococcus aureus collagen-binding protein Cna (domain or fragment, Collagen adhesin Cna of S. aureus FDA 574, residues 31 to 344 (predicted N1N2 subdomains of the A region); In the assay it was coupled covalently to the AFM tip (PEG-benzaldehyde linker) or to the substrate (NHS chemistry); source: recombinant, cloned into plasmid pQE30, purified) RDISSTNVTDLTVSPSKIEDGGKTTVKMTFDDKNGKIQNGDMIKVAWPTSGTVKIEGYSKTVPLTVKGEQVGQAVITPDGATITFNDKVEKLSDVSGFAEFEVQGRNLTQTNTSDDKVATITSGNKSTNVTVHKSEAGTSSVFYYKTGDMLPEDTTHVRWFLNINNEKSYVSKDITIKDQIQGGQQLDLSTLNINVTGTHSNYYSGQSAITDFEKAFPGSKITVDNTKNTIDVTIPQGYGSYNSFSINYKTKITNEQQKEFVNNSQAWYQEHGKEEVNGKSFNHTVHNINANAGIEGTVKGELKVLKQDKDTKA |  |  |  |  |  |  |  |  |  |  |  |  | 0.0002 s⁻¹ | 0.0005 s⁻¹
